Test results reported in patent US20240228980A1.

Target: PB1 (influenza A/WSN/1933 polymerase subunit) (influenza A virus A/WSN/1933) (UniProt P03430)
Assay: cell-based or functional assay

Chain of PB1 (influenza A/WSN/1933 polymerase subunit) (influenza A virus A/WSN/1933) (P03430 whole entry): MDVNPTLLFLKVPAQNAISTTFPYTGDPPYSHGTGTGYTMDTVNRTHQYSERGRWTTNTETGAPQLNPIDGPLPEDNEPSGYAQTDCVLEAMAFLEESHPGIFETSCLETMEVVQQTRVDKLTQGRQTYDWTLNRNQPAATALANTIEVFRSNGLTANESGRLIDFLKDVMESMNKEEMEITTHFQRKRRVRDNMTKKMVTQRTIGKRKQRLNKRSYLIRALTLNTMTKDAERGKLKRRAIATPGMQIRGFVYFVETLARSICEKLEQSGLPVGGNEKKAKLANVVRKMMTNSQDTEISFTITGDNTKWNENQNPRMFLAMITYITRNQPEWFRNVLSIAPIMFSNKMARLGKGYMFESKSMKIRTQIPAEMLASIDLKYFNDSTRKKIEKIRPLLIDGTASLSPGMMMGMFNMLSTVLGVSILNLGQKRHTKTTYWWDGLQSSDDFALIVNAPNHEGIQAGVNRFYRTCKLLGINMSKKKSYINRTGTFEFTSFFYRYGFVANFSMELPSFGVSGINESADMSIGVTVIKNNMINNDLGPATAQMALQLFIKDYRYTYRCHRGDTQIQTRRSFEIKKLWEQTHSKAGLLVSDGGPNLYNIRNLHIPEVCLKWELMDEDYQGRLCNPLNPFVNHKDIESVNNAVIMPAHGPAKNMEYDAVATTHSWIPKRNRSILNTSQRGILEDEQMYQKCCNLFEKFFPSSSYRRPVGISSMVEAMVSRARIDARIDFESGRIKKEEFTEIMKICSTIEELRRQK

Row | Substance | virus titers [%]
1 | PB2 195/2223 DPR | 50
2 | PB2 416/2189 DPR (from UniProt P03427 1-131) | 50
